Target: the molecule itself
Experiment: SEC; calibrated Superose-12 column, buffer E (20 mM Tris-HCl pH 7.5, 250 mM NaCl, 10% glycerol), flow rate 0.8 ml/min; self-association, size of the oligomer not determined

B1: Sso0001 (Cas4 family protein from Sulfolobus solfataricus) (enzyme, Sulfolobus solfataricus P2, UniProt Q97TX9 1-202, looked up)
chain: MITEFLLKKKLEEHLSHVKEENTIYVTDLVRCPRRVRYESEYKELAISQVYAPSAILGDILHLGLESVLKGNFNAETEVETLREINVGGKVYKIKGRADAIIRNDNGKSIVIEIKTSRSDKGLPLIHHKMQLQIYLWLFSAEKGILVYITPDRIAEYEINEPLDEATIVRLAEDTIMLQNSPRFNWECKYCIFSVICPAKLT
notes: Sso0001, Cas4 family protein of Sulfolobus solfataricus P2; the sso0001 gene was amplified from the genome with primers that begin at the start codon and end after the stop codon; a single subunit is printed as 23 kDa; Carries an iron-sulfur cluster (mean 4.3 iron atoms per protein, consistent with 4Fe:4S); No removal of the tag is described; The size of the oligomer was not determined; also …
- binding result: binds

Reference: publication PMC3466216, “The CRISPR Associated Protein Cas4 Is a 5′ to 3′ DNA Exonuclease with an Iron-Sulfur Cluster” (PLoS ONE, 2012)
